Results reported in paper doi:10.1101/2024.08.29.607757 (bioRxiv, 2024).

B2: NtcA from Synechococcus elongatus (strain PCC7942) with N-terminal His6 tag (natural protein)
chain: MLANENSLLTMFRELGSGKLPLQIEQFERGKTIFFPGDPAERVYLLVKGAVKLSRVYESGEEITVALLRENSVFGVLSLLTGQRSDRFYHAVAFTPVQLFSVPIEFMQKALIERPELANVMLQGLSSRILQTEMMIETLAHRDMGSRLVSFLLILCRDFGIPSPDGITIDLKLSHQAIAEAIGSTRVTVTRLLGDLRESKLIAIHKKRITVFNPVALSQQFS

Experiments:
[1] = target: B2; experiment: crystal structure
crystal structure = target: the molecule itself; experiment: crystal structure
NtcA = target: T1, NtcA (Synechococcus elongatus PCC7942, UniProt P29283 1-222); experiment: X-ray crystallography
T1 sequence: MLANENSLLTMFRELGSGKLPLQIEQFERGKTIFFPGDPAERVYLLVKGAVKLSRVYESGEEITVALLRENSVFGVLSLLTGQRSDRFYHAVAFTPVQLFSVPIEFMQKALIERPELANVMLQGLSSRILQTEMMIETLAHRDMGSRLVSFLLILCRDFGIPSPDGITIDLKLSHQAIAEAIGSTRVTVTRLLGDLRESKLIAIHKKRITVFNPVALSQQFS

B1: PipX from Synechococcus elongatus (strain PCC7942) with N-terminal His6 tag (natural protein)
chain: MASENYLNHPTFGLLYQICSFGDSKELFATLYAQRLFFLVAFDARGTRFEPIGRNEARMLVDNRLRQLRRDASLQEYNQLQQVFKQTFL
B1: binds [1].

B2: binds (crystal structure).

B3: nicked symmetric glnA half-site NtcA box (NtcA-DNA crystal) (dsDNA)
DNA 1: CATTTTTATGTATC
DNA 2: AGCTGATACATAAAAAT
B3: binds (NtcA).
